Patent publication US20030119733A1, “Compositions and methods for inhibiting hepatocyte invasion by malarial sporozoites” (New York University, priority 1992, published 2003)

Experiments:
[1] = test system: CS binding to HepG2 cells; experiment: Enzyme treatment of HepG2 cells before CS binding; design: species or system human; conditions: heparitinase from 5 U/ml, chondroitinase ABC from 1 U/ml; CSFZ(Cys) 5 μg/ml
Description: In some experiments the HepG2 cells were treated with either heparitinase (Sigma) or chondroitinase ABC (ICN) before incubation with the CS. Heparitinase treatment was performed in 0.05 M acetate buffer, pH 6.0, containing 1 mg/ml BSA and 1 mM PMSF, 5μg/ml leupeptin and pepstatin. Cells were treated for 3 hours at 37° C. and then were washed 3× with TBS before protein was added. Chondroitinase ABC treatment was performed overnight at 37° C. in 0.1 M Tris/HCl, pH 8.0, 0.03 M sodium acetate and 0.1% BSA, and washed 3× with TBS. Enzyme-treated cells were then incubated with CS as outlined above.
Paraformaldehyde-fixed HepG2 cells were preincubated with varying amounts of enzyme, washed and then incubated with 5 μg/ml of CSFZ(Cys). […] Heparitinase and chondroitinase ABC were used at initial concentrations of 5 U/ml and 1 U/ml, respectively. […] Each point represents the mean of triplicates, and percent inhibition was calculated by comparison to cells that were not treated with enzyme.

[2] = test system: plasma membrane receptors for CS; experiment: Enzyme digestion of human liver sections before CS27IVC immunolabeling; type: binding; conditions: 2 hours 37°; chondroitinase ABC 2 U/ml, heparitinase 20 U/ml
Description: Normal rat kidney tissue was fixed with 4% paraformaldehyde and 1% glutaraldehyde in phosphate-buffered saline (PBS) and embedded in LR White; normal human liver was fixed similarly and embedded in Lowicryl K4M (Cerami et al., Cell 70:1021-1033, 1992). Ultrathin sections were sequentially labeled with 10-50 μg/ml CS27IVC, 15 μg/ml mAb 2A10 and a 1:30 dilution of PAG15. Prior to immunolabeling, part of the sections were incubated for 120 min at 37° C. with heparitinase and chondroitinase ABC (both ICN) using concentrations of 20 U/ml and 2 U/ml, respectively. Control specimens were incubated only with the gold markers or with mAb 2A10 and PAG15.
Human liver sections were incubated with heparitinase or chondroitinase ABC for 2 hours at 37° C., prior to immunolabeling with recombinant CS. The sections were then labelled with CS27IVC followed by mAb 2A10 and PAG15. FIGS. 8a and 8b are electron micrographs of Lowicryl K4M-embedded sections. The section of FIG. 8a was treated with 2 U/ml chondroitinase ABC (ICN) for 2 hour at 37° before the immunolabeling. The typical CS label on the space of Disse (D) and on the lateral domain of the hepatocyte plasma membrane (arrows) and on lysosomes (L) was unaltered. The patchy pattern of CS-labeled hepatocyte microvilli within the space of Disse was still present in the chondroitinase-treated sections (FIG. 8a). […]

HepG2 cells = experiment: HepG2 cell binding assay of recombinant CS polypeptides; design: species or system human; conditions: indirect immunofluorescence
Description: For indirect immunofluorescence, HepG2 cells (ATCC number HB8065, Rockville, Md.; Knowles, B. P., et al., Science 209:497-499, 1980) were grown on slides (Cel-Line Associates, Inc., Newfield, N.J.) overnight in minimum essential medium with 10% fetal calf serum (FCS-MEM; GIBCO, Grand Island, N.Y.), 1 mM L-glutamine (GIBCO), 3 mg/ml glucose (Sigma), 1×nonessential amino acids (GIBCO), 50 μg/ml penicillin, and 100 μg/ml streptomycin (GIBCO). For the enzyme-linked immunosorbent assay, 10^5 HepG2 cells were deposited in 96-well Falcon tissue culture plates (Becton Dickinson, Oxnard, Calif.) and grown for 24 hr. in FCS-MEM. The cells were fixed with 4% paraformaldehyde, washed three times with PBS, and stored at 4° C. in BSA/TPBS until use. Before the experiments, plates were blocked for 2 hr. at 37° C. with 1% gelatin, 0.05% Tween in PBS (pH 7.4) (gelatin/TPBS). […] After 15 min., fluorescence was read in a Fluoroskan II plate reader (Flow Lab Inc., McLean, Va.) with excitation filter 350 nm and emission filter 460 nm. […]
In order to quantify more accurately the effectiveness of various peptides in inhibiting the CS27IVC binding to hepatocytes additional experiments were performed using the human hepatoma cell line HepG2. This cell line is invaded readily by P.berghei sporozoites. […] The results, expressed in fluorescence units v. protein concentration are depicted in FIG. 6. […]

rat liver sections = experiment: Staining of frozen tissue sections with recombinant CS polypeptides; type: binding; conditions: revealed with MAb 2A10, fluorescence; CS27IVC 50-5 μg/ml, Falciparum-2 25 μg/ml, Falciparum-1 up to 250 μg/ml
Description: The procedure was carried out essentially as described by Dukor P. et al., Proc. Natl. Acad. Sci. USA 67:991-997, 1970 and Imai Y. et al., J. Cell. Biol. 111:1225-1232, 1990. Rats were euthanized with CO2. Small pieces of the liver, spleen, heart, brain and lung were removed, snap frozen in liquid nitrogen, embedded in Tissue Tek O.C.T. (Miles, Inc., Naperville, Ill.), and cut into 5 μm sections. Sections were dried for 30 min., fixed for 10 min. in 4% paraformaldehyde, rinsed three times with phosphate-buffered saline (PBS), and either used immediately or stored at 4° C. in 1% BSA, 0.5% Tween, PBS (BSA/TPBS). After blocking with 100 mM glycine (pH 7.2) and with BSA/TPBS, the sections were sequentially incubated at 37° C. with recombinant proteins for 1 hr, 10 μg/ml MAb 2A10 for 45 min., and rat anti-mouse immunoglobulin conjugated to fluorescein isothiocyanate (Boehringer Mannheim, Indianapolis, Ind.) for 45 min. The slides were counterstained for 10 min. with 0.3% Evans blue, rinsed extensively in PBS, and finally observed under a fluorescence microscope. For peptide inhibition experiments, the sections were first incubated with the peptide at various concentrations in BSA/TPBS for 1 hour at 37° C., washed six times with BSA/TPBS, and then stained with 2.5 μg/ml CS recombinant protein as described above. In a few experiments, the tissues were fixed for 10 min. with methanol, acetone, or 4% paraformaldehyde containing 0.5% glutaraldehyde.
Frozen sections of various rat organs were incubated with recombinant CS27IVC polypeptide. […] The staining closely followed the sinusoidal spaces of the hepatic lobules, indicating CS binding to the hepatocyte membrane. Other areas of the liver sections and sections of other organs (spleen, lung, heart or brain) were not stained. Control sections (incubated with CS27IVC in the absence of antibody or vice versa) were not stained either.
To define the region of the CS that mediates the perisinusoidal staining various other recombinant constructs were also used in the frozen section assay.

[3] = test system: heparan sulfate proteoglycans (HSPG); experiment: CS/proteoglycan co-immunoprecipitation; type: binding, human
Description: All extracts and supernatants were first precleared with normal rabbit serum and Staph A cells. Then 32 μg/ml of CSFZ(Cys) or 64 μg/ml of CS27IVC, Falc-2 or Falc-1 were added for 30 minutes, followed by 10.8 μg/ml mAb 2A10 for 30 minutes, and 1% Staph A cells (final concentrations). The suspensions were shaken for 1 to 5 hours at 4° C. The Staph A cells were washed 3 times with the lysis buffer A, 2 times with lysis buffer B (10 mM Tris-HCl, pH 7.2, containing 100 mM NaCl and 0.5% NP40), 1 time with 50 mM Tris-HCl, ph 7.2, and were processed in this buffer for electrophoresis under reducing and non-reducing conditions.
Extracts of cells metabolically labeled with ^35SO4 were incubated for 30 minutes at 4° C. with 32 μg/ml of recombinant CSFZ(Cys) or 64 μg/ml Falc-1, and were immunoprecipitated with mAb 2A10 and Staph A cells. […] Immunoprecipitation with Falc-1 was negative. The SDS-PAGE patterns of the total lysate of HepG2 cells, and of the molecules co-immunoprecipitated with CSFZ(Cys) resembled the corresponding liver SDS-PAGE patterns. In kidney lysates, CSFZ(Cys) selectively immunoprecipitated a band of slightly lower molecular weight than the total kidney sulfated molecules.
Sub-confluent HepG2 cells were incubated with various concentrations of trypsin for 5 minutes at 4° C. […] Independently of the trypsin concentration, about 80% of the released HSPG was co-immunoprecipitated by 32 μg/ml CSFZ(Cys) and 10.8 μg/ml mAb 2A10. Under the same conditions, Falc-1 was negative.
^35SO4-labeled trypsin-released proteoglycan (total supernatant) was precipitated by CSFZ(Cys) (32 μg/ml), Falc-2 (64 μg/ml), CS27IVC (64 μg/ml) and Falc-1 (64 μg/ml). The labeled molecules were incubated with CSFZ(Cys), CS27IVC, and Falc-2 at equivalent concentrations of Region II+, and co-immunoprecipitated with the mAb 2A10. CSFZ(Cys), lacking most of the repeat region, precipitated up to 86% of the total sulfate-labeled proteoglycans (see FIG. 14), while CS27IVC and Falc-2 precipitated only 18% and 6% of the counts, respectively. Falc-1, which lacks Region II+, was negative.
Subconfluent sulfate-labeled HepG2 cells were incubated with 20 μg/ml trypsin for 5 minutes at 4° C., and the supernatants were loaded onto an anion exchange chromatography Pharmacia mono-Q column. These were eluted with a 0 to 2 M NaCl gradient in the presence of 7 M urea. […] Protein was not detectable in the labeled peaks. One ml fractions were collected and counted.

Molecule	effect of enzyme treatment of HepG2 cells on CS binding [1]	CS27IVC label on human liver sections after enzyme treatment [2]	binding to HepG2 cells (HepG2 cells)	binding (staining) to frozen liver sections (rat liver sections)	co-immunoprecipitation of 35SO4-labeled sulfated molecules ([3]; lysates of rat liver, HepG2 cells, kidney, CSFZ(Cys) 32 μg/ml, others 64 μg/ml)	counts in the mono-Q peak co-immunoprecipitated ([3]; peak at 0.6 to 0.8 M NaCl)	released HSPG co-immunoprecipitated ([3]; trypsin-released from HepG2 cells, CSFZ(Cys) 32 μg/ml, mAb 2A10 10.8 μg/ml)	total sulfate-labeled proteoglycans precipitated ([3]; trypsin-released proteoglycan, equivalent concentrations of Region II+)
chondroitinase ABC	no effect	unaltered						
CSFZ (Cys): residues 27-123 plus NANP (a single instance) plus residues 300-411 of P. falciparum CS protein (protein) GSSSNTRVLNELNYDNAGTNLYNELEMNYYGKQENWYSLKKNSRSLGENDDGNNNNGDNGREGKDEDKRDGNNEDNEKLRKPKHKKLKQPGDGNPDPNANPMPNDPNRNVDENANANNAVKNNNNEEPSDKHIEQYLKKIKNSISTEWSPCSVTCGNGIQVRIKPGSANKPKDELDYENDIEKKICKMEKCSSVFNVVNSSIGLIMVLSFLFL			bound	bound with the same pattern as CS27IVC	co-immunoprecipitated sulfated molecules	about 80%	about 80%	up to 86%
